Experimental data as given in paper PMC3424236, “Siderocalin/Lcn2/NGAL/24p3 Does Not Drive Apoptosis Through Gentisic Acid Mediated Iron Withdrawal in Hematopoietic Cell Lines” (PLoS ONE, 2012).

Biological target: T1, Scn (Mus musculus, UniProt P11672)
T1 construct: made in house; host or cells: E. coli
T1 sequence (P11672 21-200): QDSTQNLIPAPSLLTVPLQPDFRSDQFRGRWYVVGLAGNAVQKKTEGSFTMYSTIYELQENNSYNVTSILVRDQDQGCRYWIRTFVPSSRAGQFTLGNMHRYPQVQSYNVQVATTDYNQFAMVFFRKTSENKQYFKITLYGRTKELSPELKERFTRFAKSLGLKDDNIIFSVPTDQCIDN
Test: Binding of BOCT subdomains and loop peptides to Scn (SPR, SEC)
Design: species or system murine
Method: NTD^1–102 and CTD^477–520 were expressed recombinantly in E. coli, the former as a His-tagged, periplasmically-targeted construct and the latter as a cytoplasmically-targeted, cleavable GST-fusion (Figures 5C and 5D). Binding of NTD or CTD to Scn was assayed by SEC (e. g., Figure 5E) and SPR (e. g., Figure 5D). In Figure 5D, 2086 SPR response units (RUs) of Scn were amine-coupled to CM5 sensor chips (Biacore) following the manufacturer’s protocol. CTD analytes, at concentrations from 3.125 to 50 µM, were injected in duplicate, in random order, for one minute at a flow rate of 20 µl/min on a Biacore 3000 system. Sensorgrams were blank-corrected by the double-subtraction method, using a capped channel as blank. […] Peptides corresponding to predicted cell-surface loops of significant length (>6 residues) in either topology were synthesized commercially (Genscript) with N-terminal biotin groups:
BOCT loop peptides were coupled to strepavidin-coated sensor chips and analyzed with Scn analytes using analogous methodology; as above, no quantifiable responses were detected (data not shown).

B1: NTD: BOCT N-terminal domain, residues 1 through 102, recombinantly expressed in E. coli (protein)
chain: MPSARFGRRGIVLLTLGLVGPCGVGGAAAGSSTGIMALRFLLGFLLAGVDLGVYLMRLELCDPTQRLRVALAGELVGVGGHFLFLGLALVSKDWRFLQRMIT
modifications: left off: His tag, end not stated, state not stated
notes: BOCT N-terminal domain, residues 1 through 102, recombinantly expressed in E. coli
binding to Scn (SPR, SEC): Comparable results
